Laboratory results reported in article PMC10842378 (Cell reports, 2023).

Tests used:
[1] = biological target: FLAG-AP-DHX15 LML triple mutant L536A/M537A/L540A (human, UniProt O43143 1-795, L536A | M537A | L540A); test: proximity labelling
[2] = biological target: FLAG-AP-DHX15 R222G (human, UniProt O43143 1-795, R222G); test: proximity labelling
FLAG-AP-DHX15 R222G, sequence (O43143 whole entry R222G): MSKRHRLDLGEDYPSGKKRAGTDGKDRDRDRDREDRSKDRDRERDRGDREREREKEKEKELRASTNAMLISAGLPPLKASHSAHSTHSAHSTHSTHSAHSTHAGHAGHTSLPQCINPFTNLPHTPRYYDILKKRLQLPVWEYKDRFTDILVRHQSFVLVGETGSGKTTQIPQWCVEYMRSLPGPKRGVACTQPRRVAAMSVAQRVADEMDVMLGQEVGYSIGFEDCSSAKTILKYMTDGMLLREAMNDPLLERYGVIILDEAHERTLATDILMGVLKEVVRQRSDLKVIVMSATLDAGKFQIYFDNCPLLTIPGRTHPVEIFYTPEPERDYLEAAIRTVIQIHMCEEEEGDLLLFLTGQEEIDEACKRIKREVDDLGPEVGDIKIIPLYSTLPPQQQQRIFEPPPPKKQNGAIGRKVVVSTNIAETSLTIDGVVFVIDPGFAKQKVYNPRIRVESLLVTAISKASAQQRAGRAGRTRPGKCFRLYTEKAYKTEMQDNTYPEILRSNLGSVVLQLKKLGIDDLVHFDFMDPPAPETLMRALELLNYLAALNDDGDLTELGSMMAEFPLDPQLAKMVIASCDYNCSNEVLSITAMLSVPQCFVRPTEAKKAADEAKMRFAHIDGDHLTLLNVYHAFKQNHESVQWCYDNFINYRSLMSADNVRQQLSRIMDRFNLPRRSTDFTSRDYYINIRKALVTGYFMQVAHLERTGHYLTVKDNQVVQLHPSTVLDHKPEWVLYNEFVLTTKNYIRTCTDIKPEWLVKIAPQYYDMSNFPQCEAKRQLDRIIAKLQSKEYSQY

FLAG-AP-DHX15 LML triple mutant L536A/M537A/L540A, sequence (O43143 whole entry L536A/M537A/L540A): as the sequence (O43143 whole entry R222G) above, with G222R, L536A, M537A, L540A counted along it

level in the streptavidin pull-down (percent) [1] [%] | level in the streptavidin pull-down (percent) [2] [%] | Binder
47 | 80 | U2AF2 (natural protein, human (endogenous in HEK293T.A2), UniProt P26368 1-475, looked up) MSDFDEFERQLNENKQERDKENRHRKRSHSRSRSRDRKRRSRSRDRRNRDQRSASRDRRRRSKPLTRGAKEEHGGLIRSPRHEKKKKVRKYWDVPPPGFEHITPMQYKAMQAAGQIPATALLPTMTPDGLAVTPTPVPVVGSQMTRQARRLYVGNIPFGITEEAMMDFFNAQMRLGGLTQAPGNPVLAVQINQDKNFAFLEFRSVDETTQAMAFDGIIFQGQSLKIRRPHDYQPLPGMSENPSVYVPGVVSTVVPDSAHKLFIGGLPNYLNDDQVKELLTSFGPLKAFNLVKDSATGLSKGYAFCEYVDINVTDQAIAGLNGMQLGDKKLLVQRASVGAKNATLVSPPSTINQTPVTLQVPGLMSSQVQMGGHPTEVLCLMNMVLPEELLDDEEYEEIVEDVRDECSKYGLVKSIEIPRPVDGVEVPGCGKIFVEFTSVFDCQKAMQGLTGRKFANRVVVTKYCDPDSYHRRDFW
36 | 76 | SF3B1 (natural protein, human (endogenous in HEK293T.A2), UniProt O75533 1-1304, looked up) MAKIAKTHEDIEAQIREIQGKKAALDEAQGVGLDSTGYYDQEIYGGSDSRFAGYVTSIAATELEDDDDDYSSSTSLLGQKKPGYHAPVALLNDIPQSTEQYDPFAEHRPPKIADREDEYKKHRRTMIISPERLDPFADGGKTPDPKMNARTYMDVMREQHLTKEEREIRQQLAEKAKAGELKVVNGAAASQPPSKRKRRWDQTADQTPGATPKKLSSWDQAETPGHTPSLRWDETPGRAKGSETPGATPGSKIWDPTPSHTPAGAATPGRGDTPGHATPGHGGATSSARKNRWDETPKTERDTPGHGSGWAETPRTDRGGDSIGETPTPGASKRKSRWDETPASQMGGSTPVLTPGKTPIGTPAMNMATPTPGHIMSMTPEQLQAWRWEREIDERNRPLSDEELDAMFPEGYKVLPPPAGYVPIRTPARKLTATPTPLGGMTGFHMQTEDRTMKSVNDQPSGNLPFLKPDDIQYFDKLLVDVDESTLSPEEQKERKIMKLLLKIKNGTPPMRKAALRQITDKAREFGAGPLFNQILPLLMSPTLEDQERHLLVKVIDRILYKLDDLVRPYVHKILVVIEPLLIDEDYYARVEGREIISNLAKAAGLATMISTMRPDIDNMDEYVRNTTARAFAVVASALGIPSLLPFLKAVCKSKKSWQARHTGIKIVQQIAILMGCAILPHLRSLVEIIEHGLVDEQQKVRTISALAIAALAEAATPYGIESFDSVLKPLWKGIRQHRGKGLAAFLKAIGYLIPLMDAEYANYYTREVMLILIREFQSPDEEMKKIVLKVVKQCCGTDGVEANYIKTEILPPFFKHFWQHRMALDRRNYRQLVDTTVELANKVGAAEIISRIVDDLKDEAEQYRKMVMETIEKIMGNLGAADIDHKLEEQLIDGILYAFQEQTTEDSVMLNGFGTVVNALGKRVKPYLPQICGTVLWRLNNKSAKVRQQAADLISRTAVVMKTCQEEKLMGHLGVVLYEYLGEEYPEVLGSILGALKAIVNVIGMHKMTPPIKDLLPRLTPILKNRHEKVQENCIDLVGRIADRGAEYVSAREWMRICFELLELLKAHKKAIRRATVNTFGYIAKAIGPHDVLATLLNNLKVQERQNRVCTTVAIAIVAETCSPFTVLPALMNEYRVPELNVQNGVLKSLSFLFEYIGEMGKDYIYAVTPLLEDALMDRDLVHRQTASAVVQHMSLGVYGFGCEDSLNHLLNYVWPNVFETSPHVIQAVMGALEGLRVAIGPCRMLQYCLQGLFHPARKVRDVYWKIYNSIYIGSQDALIAHYPRIYNDDKNTYIRYELDYIL
